Experimental findings from the DeepSol protein solubility set are described below.

A short description of this series: soluble on expression in E. coli; label from the status in PepcDB or PDB records.
With “IEEGKIVFAVGGAPNEIEYWKGVIAEFEKKYPGVTVELKRQATDTEQRRLDLVNALRGKSSDPDVFLMDVAWLGQFIASGWLEPLDDYVQKDNYDLSVFFQSVINLADKQGGKLYALPVYIDAGLLYYRKDLLEKYGYSKPPETWQELVEMAQKIQSGERETNPNFWGFVWQGKQYEGLVCDFVEYVYSNGGSLGEFKDGKWVPTLNKPENVEALQFMVDLIHKYKISPPNTYTEMTEEPVRLMFQQGNAAFERNWPYAWGLHNADDSPVKGKVGVAPLPHFPGHKSAATLGGWHIGISKYSDNKALAWEFVKFVESYSVQKGFAMNLGWNPGRVDVYDDPAVVSKSPHLKELRAVFENAVPRPIVPYYPQLSEIIQKYVNSALAGKISPQEALDKAQKEAEELVKQYS”, the “soluble on expression in E. coli” value is reported as “soluble”.

Regarding “IEVAAIQGNVPRMGLDFNAQRRAVLANHARETLKLDEQVDLVIWPENSSDVNPFSDAQARAIIDGAVEHVQAPILVGTITVDEVGPRNTMQVFDPVEGAAEYHNKKFLQPFGEYMPFREFLRIFSPYVDSAGNFQPGDGTGVVEMNAANLGRAVTVGVMTCYEVIFDRAGRDAIANGAEFLTTPTNNATFGFTDMTYQQLAMSRMRAIEFDRAVVVAATSGVSAIVNPDGSISQNTRIFEAATLTESIPLKDTVTIAARVGFY”, the “soluble on expression in E. coli” value is on record as “not soluble”.

Regarding “IHDDPVEQRDADVAMEKSHRARNERKKNKNHTPSEHPAAAAMHEEKKKVSIEDLVAAVVIEDDPQPEPDVVPTPADDDVMDIVSAALDRAYEEDPDEPSGSDYLPLEEKPQTYAEAVEEFERSPRRKRKTRGNSVSDVPPRKADFEKPEPQPEPEVVVEKVSSRGRRRAVRRTVVEATPEVVAPTETVESSRGRRRAVRKKMAPQPVQTEAVVEDKHEVSAPSQGGRGRRRASRRAPRR”, the “soluble on expression in E. coli” value is “not soluble”.

For “IIGGREVIPHSRPYMASLQRNGSHLCGGVLVHPKWVLTAAHCLAQRMAQLRLVLGLHTLDSPGLTFHIKAAIQHPRYKPVPALENDLALLQLDGKVKPSRTIRPLALPSKRQVVAAGTRCSMAGWGLTHQGGRLSRVLRELDLQVLDTRMCNNSRFWNGSLSPSMVCLAADSKDQAPCKGDSGGPLVCGKGRVLAGVLSFSSRVCTDIFKPPVATAVAPYVSWIRKVTGRSALEHHHHHH”, the “soluble on expression in E. coli” value is on record as “soluble”.

With “IKPGAKMGVIGSGIASVYAKEALQELGLEASFLKIGTYPVPKKLILELLSTVDTVLIFEELEPVVEEQVRILAQEAGLEVSVLGKEGGFVSREGELDVSAFLEALRKAFDLDIEPDSGKVPLELAPRPPSLCAGCSHRATFYSMKKVFGKDAIYPSDIGCYTLGIQSGTVETTLCMGSSISIASGLYHAGEKRPICCSIGDSTFFHTGMNSLLNAVFNKANITVTILDNRITAMTGHQPNPGVGFTVTGEPTVEVSLAELCKAMGAGFVTVV”, the “soluble on expression in E. coli” value is listed as “not soluble”.

Turning to “IPIPSALEARLDAYVALLQQWQAKTNLVAPSTLPQLWTRHVADSLQLVSLMPHARRWLDFGSGGGFPGVVLACAMADVGGHVTLVERIAKKAAFLREALRVAGAPGTVILADIGDNVDRFPQALDCITARAVAPLHQLIGFAEPLMTPGTTKALFLKGQDVDAELTETTKYWKFQPKLHASVTGGQGWIVEIDHIER”, the “soluble on expression in E. coli” value is “not soluble”.

In the case of “IQLQQATQLHFSELGKLLDDLRVEKHINEVRLKLTPSFAFKWLVPKLESFQLENPEIQVQIFAEGALVNSDLKDYDVAIDYGLHPYRDHDAELILDEKLLPVMSPKYLEDHRWLKTPFGDQTSSMSANQWQAATLLHDAMPWEKATRDYEWLYWASAMGFDFKTDVGHFFNRTDMAMSAAEAGVGIAMARMALIEDELTTKRLVSPFAPIPANAGYYLIMNTRSQSTERFREWLLKQIESRR”, the “soluble on expression in E. coli” value is “not soluble”.

“IRNVGITFETRPDWAREEHVDEFLRLGGTKVEIGVQSVYDFVLSRMQRGHGVAEIVRANRVLRDSAFKVGFHMMPHLPGADSELDLRGFKKLFDDQRFRPDYLKIYPTLVTEGTPLYRMWKSGEYQALSDEEAAELVADIKAVLPKWVRLQRIQRDIPAHQIFAGVR”: the “soluble on expression in E. coli” value is reported as “not soluble”.

As for “IRRVLVPVDTSEERARNQAKYLTSLPNIPDSVEATVLFVFPHQDYKGAPSHDFEEVDAAVTAAEHLEAKGISVERVAVGGEVGRKILDAATDRDADSIVIGGRKRSGIANVLLGGTTQDIMLAAERPVTLTG”, the “soluble on expression in E. coli” value was “not soluble”.

Take “IVGGKVCPKGECPWQVLLLVNGAQLCGGTLINTIWVVSAAHCFDKIKNWRNLIAVLGEHDLSEHDGDEQSRRVAQVIIPSTYVPGTTNHDIALLRLHQPVVLTDHVVPLCLPERTFSERTLAFVRFSLVSGWGQLLDRGATALELMVLNVPRLMTQDCLQQSRKVGDSPNITEYMFCAGYSDGSKDSCKGDSGGPHATHYRGTWYLTGIVSWGQGCATVGHFGVYTRVSQYIEWLQKLMRSEPRPGVLLRAPFP”: the “soluble on expression in E. coli” value is given as “soluble”.

In the case of “IVHREHHESREEVSVSSGKNNPFYFNSDRWFRTLYRNEWGHIRVLQRFDQRSKQMQNLENYRVVEFKSKPNTLLLPHHADADFLLVVLNGTAVLTLVNPDSRDSYILEQGHAQKIPAGTTFFLVNPDDNENLRIIKLAIPVNNPHRFQDFFLSSTEAQQSYLRGFSKNILEASFDSDFKEINRVLFGEERQQQQGEESREEGVIVELKREQIQELMKHAKSSSRKELSSQDEPFNLRNSKPIYSNKFGRWYEMTPEKNPQLKDLDVFISSVDMKEGALLLPHYSSKAIVIMVINEGEAKIELVGLSDQQQQKQQEESLEVQRYRAELSEDDVFVIPAAYPVAINATSNLNFFAFGINAENNRRNFLAGGKDNVMSEIPTEVLEVSFPASGKKVEKLIKKQSESHFVDAQPEQQQREEGHKGRKGSLSSILGSLY”, the “soluble on expression in E. coli” value is “soluble”.

“KDIYASMETARREGKSFNTWKKGLVDEMERKGWVAGRDKKLGRGLDGTLLADPKTGEYFGTPRRLNTIYRVNMQAAYSGARYQRMMDNVDNRPYWKYSAVSDSRTRPAHLALNGRVYRYDAPFWATFYPPNGFNCRCTVI”: the “soluble on expression in E. coli” value is reported as “not soluble”.

As to “KESILAVLLYLFEYYFSENADLVRDRDSLQNSLIQVGFSPAEINKAFEWLDALAANRPTLTNPRVNGPVRVLHGPELDKLDVESRGFLLFLEQQGILNTEQRELVLDRAMALDQEELDLDDMKWVVLMVLFNQPGAEAAYAWMETQMFGNEPEQLH”, the “soluble on expression in E. coli” value was “not soluble”.

In the case of “KGKKVILFAPTFRGSGHGTAHYPFFKIDFERLARYCEKNNAVVLFKMHPFVKNRLNIADKHKQYFVDVSDFREVNDILFITDLLISDYSSLIYEYAVFKKPMIFYAFDLEDYITTRDFYEPYESFVPGKIVQSFDALMDALDNEDYEGEKVIPFLDKHFKYQDGRSSERLVRNLFG”, the “soluble on expression in E. coli” value is listed as “not soluble”.

As for “KIGFKLGGGFEYAFDNTWSLQPSLFLSTKGAKKDGNSINAMYLELPVMAAARFNVADNTNIVVNAGPYLACGIAGKTKIDLGNDTERKYDTFGDDALKRFDAGLGVGVALELGKVIVGLDGQFGLVDVEKIGNPKNTNFSIVLGYKF”, the “soluble on expression in E. coli” value is on record as “not soluble”.

With “KILEREFSMNEQLFKDLFDRAVDGIVLFDKDGGFIDANLSFCKSFEINHNELSHLSLYEFIDSGSRKDFDNIWKALNRKGKAKGELPVKLRSGVQKLFEFTITSNIISGFYMSIMRDIT”, the “soluble on expression in E. coli” value is given as “not soluble”.

Regarding “KKIKVYIELDLGGPITVGFPTHISDGISLLGSTNIFDDISEAYFTPKDEEILKRDPDIIIYEPKRLTDYEKERFYSILRKRDLFQLLNKRLIFTKGDYLAHMGPSFITDVLIWLKSVL”, the “soluble on expression in E. coli” value is “not soluble”.

With “KLEEEPYLKGTVNTVIYHNDTNLYTVLKVKVTETSEAIEDKAVSVTGYFPALQEEETYTFYGKIVTHPKFGLQFQAEHFKKEIPTTKEGIIQYLSSDLFEGIGKKTAEEIVKKLGDSAINKILADASVLYDVPRLSKKKADTLAGALQRHQGLEQIMISLNQFGFGPQLSMKIYQAYESETLEKIQENPYQLVKDVEGIGFGKADELGSRMGLSGNHPERVKAAILYTLETTCLSEGHTYIETEQLIIDTQSLLNQSAREGQRITEMDAANAIIALGENKDIVIEDGRCYFPSLFYAEQNVAKRVKHIASQTEYENQFPESEFLLALGELEERMDVQYAPSQKEAIQKALSSPMLLLTGGPGTGKTTVIRGIVELYGELHGVSLDPSAYKKDEAFPIVLAAPTGRAAKRMSESTGLPAVTIHRLLGWNGAEGFTHTEDQPIEGKLLIIDEASMLDIWLANHLFKAIPDHIQIIIVGDEDQLPSVGPGQVLRDLLASQVIPTVRLTDIYRQAEGSSIVELAHQMKNGLLPNNLTAPTKDRSFIRCGGSQIKEVVEKVVANALKKGYTAKDIQVLAPMYRGKAGINELNVMLQDILNPPKEKRRELKFGDVVYRTGDKILQLVNQPENNVFNGDIGEITSIFYAKENTEKEDMAVVSFDGNEMTFTKKDFNQFTHAYCCSIHKSQGSEFPIVVLPVVKGYYRMLRRNLLYTAITRAKKFLILCGEEEALEWGVKNNDATVRQTSLKNRLSVQVEEMDAELEALQKELPFSVHDANIGMEGITPFDFM”, the “soluble on expression in E. coli” value is listed as “not soluble”.

Regarding “KLFEHTVLYDSGDAFFELKGNASMKLSPKAAIEVCNEAAKKGLWILGIDGGHWLNPGFRIDSSASWTYDMPEEYKSKIPENNRLAIENIKDDIENGYTAFIITLKM”, the “soluble on expression in E. coli” value is recorded as “soluble”.

“KNFPVLHLHREDFHDIRGTISLHLKTGFPMGFQMSVMCIGQLSMQTVVNSLGTAAVAGYTAASKADQLSVLVNNAMMTAISNYVAQNFGAGKRERIRQGVR”: the “soluble on expression in E. coli” value is listed as “not soluble”.

For “KNTDLVAEDSICFPIDEHTYYASKSIFQFEENGHEYLSFLDAEYSQKINIYDIKNQKLIKTILLQKEGPNGMNVLSGCHPLNLNHFIITSWNGTFSLVNDKGEIEKKFDFWEKGVNFQEFDHISFSSYSYKPAIIKDSILYFSQSFLKHPRKKSDWNKIPMFAFANLNTGKTGWSELRYPLIFNKDEDFKNVKLYDPEICYTYTGKDVVISLGQYDSIMVSSDFKHKISYNAKSRYLAHAYPHLQDGQIDLFKNIQIQGKLPHYSHLMYDKYRKVFYRFALMPDDNIKPFSNNPHQSFSIIILNKDYEIIGETKFPGNTYTHHLCFVGKKGLYISENNENNPQFDENKLVFRCFTLQDRKK”, the “soluble on expression in E. coli” value is reported as “soluble”.

Consider “KPEWMMIHRILNHSVDKKGHVHYLIKWRDLPYDQASWESEDVEIQDYDLFKQSYWNH”, for which the “soluble on expression in E. coli” value is listed as “soluble”.

For the sequence “KPGFQLGVTVDYEIGKHWMLMSGLSWLQNRSTMKMMDHMVTYFPKTEIKMNNLILPLKMGYNIRVSDKLSLIPSVGVYASYGFGAGNCSLDVIHQEGDNITTEPAKWKPLDGFSYKAGEPNNSGNLQAFRRWDYGGIVGMKAVIADHYTISFDYRVGIKKIQAQNGLRNSTFQFSVGYRF”, the “soluble on expression in E. coli” value is “not soluble”.

With “KQSKLTLMSESLRNDGRIWVPKKLEDAKALQAGTKKPTDIPDADRDFYLERRYPAFGNLVPRDVASRAAKERCDAGFGVNNTGLAVFLDFKYAIDRLGEDVVRARYGNLFDMYEEITDENPYKTPMMIFPA”, the “soluble on expression in E. coli” value is reported as “soluble”.

On to KSKKAVWHKLLSKQRRRAVVACFRMTPLYN, for which the “soluble on expression in E. coli” value is “soluble”.

Consider “KSKLGSKLNLIRNYKNLGITLNYKNGFKNCKGEYIAVLEGDDYWIQKSKLKRQVSFLESNRDCSLVFNKIVLDYGDEKINNLIYPFNDIRKKFSARELVRSNFIQNFSCCMYRKSSIRKLRESIYDMVVYDWMFNMAVAQFGLIGYIPNYMTSHRILKSGLWSGKSKMENLQMISKCIDQYDSFFKYKYRKEFSQNKQEVLQALRRLVMVNENG”, for which the “soluble on expression in E. coli” value is recorded as “not soluble”.

“KTKALIIEDKTLTDDQRKEQLLGVDTEYAKGIENIDAAKDAAGVDKAYSDGVRDILAQYKEGQNLNDRRNAAKEFL”: the “soluble on expression in E. coli” value is “not soluble”.
